Results on 69 sequences are retold here after the domain aggregation screens of Martell et al. (2025).
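Further: 20 min heating vs room temperature control held 20 min.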

The data set can be described thus: soluble fraction after stress (log2 fold change); higher = more stays soluble; pooled small domains, quantitative proteomics. The following applies: stress: 75 degC.
“HMQPRYMLIKTAILDAIERGEMKPGSQVPSENQLAQQHNVSRMTARRALSEMVDDGILMRSQGIGTFVSD”: the “soluble fraction (log2)” value is -0.228.

Regarding “HMQPSFFEMIRMVESYIKQHFENVGNEFPEIARAIYYGIEEERNIYGTASREDMEELLDEGIPILPVP”, the “soluble fraction (log2)” value was -0.914.

In the case of “HMQPVEHLPTTDPLTTSAASEHERYEKVRWWLEEMQRTYETGDEVRAERIRLSLIEQMYKWEGE”, the “soluble fraction (log2)” value was -0.513.

As to “HMQPYTYNPNFLSDYRAYSLGIPLEAYDKLVQFRASGSFVNSMSDFQKITGVSDSLLAVLHSKFRYPK”, the “soluble fraction (log2)” value was -0.826.

Take “HMQQELEEMESGNLVRTAIDSLPINQRTAFILSAYEELPIKEIASIMNRSEGAVEQLLQRAKMNLKKKIK”: the “soluble fraction (log2)” value turned out to be 0.233.

Consider “HMQQLTDRELEVLRLLAAGLSNNKIGEKLYISATTAKFHVSNIMRKLEVSRRAEAVYAASKRGL”, for which the “soluble fraction (log2)” value was -2.26.

For “HMQQLTQRELTLLRLLANGYNNRQIAEQLQLAESTVKNNLSALFQKIGVRDRTQAVLFAISQGLVP”, the “soluble fraction (log2)” value was -1.04.

Consider “HMQQNDMTELRALAEKIISENDSVINDYKSGQGSALQFLIGQAMKETKGSANPQVISEIFTDLL”, for which the “soluble fraction (log2)” value was -0.354.

In the case of “HMQQPIPGEAYLTRRPGSDHFQIAFTIDGHRVRESSGTSDKVAAAALAQKRYEEVWREIKLGEK”, the “soluble fraction (log2)” value was -0.0824.

For “HMQQPVAYSEFVQSVNDRQIREAQIQGERIVATDNNGNRMTVIWPENDTKLLDELVQNGVLTSIQE”, the “soluble fraction (log2)” value was found to be 0.116.

Consider “HMQQVDWGSVFGDFGTMFKDQLQPTIDRLRRMAQSDTFRQSSLEEQQILYSLIEKLERSGTA”, for which the “soluble fraction (log2)” value is -1.89.

As to “HMQQVIEGLDSDRDFITVPEAIALFAVGRQTLYHYIRSGKIPSVNLGQRLTRLSKKQLGELFPLR”, the “soluble fraction (log2)” value is -1.97.

Take “HMQRGRTFSIVLNWKGRLLSTQMFFPQFTRPTKEQVTFEINKVYPGAMVYYYNPIEKDPSQPLV”: the “soluble fraction (log2)” value is -2.26.

As to “HMQRLSRREIEVLHWIAEGKSDWQIGQILSISAKTVNYHTENLKRKFGVATRMQAVVSAIKQGAFVPGE”, the “soluble fraction (log2)” value is -4.11.

With “HMQRVSDKVAAQLRVLVQEQQLKPGDRLPAERALAVQLGVSRTALREAIAQLASQGLLTARVGGGTYVAEP”, the “soluble fraction (log2)” value is -1.08.

For “HMQRYVVDENLKLDKKDINHIINVMRLNVNDQIKLINNGTIYDAIITKIEKNNVLYEIIKKEESK”, the “soluble fraction (log2)” value was -0.661.

Take “HMQSANQLIKLSRKRKGLTQQELADQAGVSLRTVQRIEKGTEEISGFSLKQISQILEIPLEQLIM”: the “soluble fraction (log2)” value is -0.652.

For the sequence “HMQSLDGPSRAAIVLMAIGPDVAGELIKSFSPAEAQKVSSLLATVRSLDREVMIEVLDSFKNITEH”, the “soluble fraction (log2)” value is -0.339.

“HMQSLPFSFAKRHGVLLKSINHLHGEAVYRIGANPLSLSEVQRYAGVPLKLSSITVEKFDRLLQETYEHD”: the “soluble fraction (log2)” value was -1.17.

As for “HMQSLSDQVFFYLKERIINNEMVPGSIISIEKLTSEFGISNTPVREAIVRLAGLDLVTIHRNKNITVS”, the “soluble fraction (log2)” value was -2.19.

“HMQSMSADDWSEKARVLMSAGIIVMGQEAKEKILNLKSLVPLIEAASASNVSMIDSRTFDELLMIIP”: the “soluble fraction (log2)” value was -2.46.

Turning to “HMQSREISYSEFVTAVEAGDVRNVTLDGEQVRFRRADGSDYVTIRPEDAEVTKLLMANDIPVRAEP”, the “soluble fraction (log2)” value turned out to be 0.116.

As for “HMQSRRTPASLVERVRQLNGQYQDKEIAELLNREGIKTAHGNEFNAKRIEMIRRHNGISKHSAQ”, the “soluble fraction (log2)” value was -0.075.

Take “HMQSSTAISFNQFQKSWLSNNIKSFQLGEDKMTVRGSLKNGTQYETIVPSERLFQFIGQHPKDGQVQEMY”: the “soluble fraction (log2)” value came out at 0.0453.

Consider “HMQSTEQVSVTVTIPPGGELRIDSDTFRVLLNGENVLDKQSGDWLMLSRDLLYLDIESAIGNGLSGNLIYT”, for which the “soluble fraction (log2)” value was found to be 0.486.

On to “HMQSVEELLDAIGDERLLHILLEADRKTLQIVVLKMMGYAPKEIGSHIGMPEQTVYTKLRRLREKIKKI”, for which the “soluble fraction (log2)” value was -1.65.

With “HMQSYHVGDKVTIKNSASHWATGQSIYNGVKGHTYKIIQTNGHKLLLDQVISWINDGDVYKAGS”, the “soluble fraction (log2)” value is -0.497.

Regarding “HMQSYSTIIGVIELRLSGIGYRTTKARYGIGNSTVTLIMNRFKETGFTLDDLKTMEPTKVEALFYPP”, the “soluble fraction (log2)” value was -1.36.

Regarding “HMQSYSYYDFQKALQNKTVESVIIEPDKTVPTGTLQIQLKGDTKEELNVSDVTEVEELLQSYDVDYKLRSV”, the “soluble fraction (log2)” value came to 0.0732.

For the sequence “HMQTASVRFADGQLEVKQKGLQRVSVYSLNGMTVANKAVQGQDYVTISLPRAAYIVKITTQNGSFTKVI”, the “soluble fraction (log2)” value was -2.18.

Turning to “HMQTGRREALEAQLRETGGEAMLARLREIDPEAAARLHPADEKRVIRALEVYEETGKTITQHNLETKAVPP”, the “soluble fraction (log2)” value turned out to be 0.309.

As for “HMQTKEVDYGTFMSMIDEKNIGTVEIGDSQIVFTDKDNKNLYETGVMNDPDLAQRLHDAGATFSS”, the “soluble fraction (log2)” value was found to be 0.128.

Turning to “HMQTLQTTSLRVSENQLFILDQQALPQEKRWLAADNVALLVDHIHTLRVRGAPLIGLSASLLLALLAGRLT”, the “soluble fraction (log2)” value turned out to be 0.0717.

Consider “HMQTMNKTNISNFEKYLNSGDVSEVIVVRNKSSVRVTLTPEALRSSEHQAVVGKNILGQENIKGPHYQFEV”, for which the “soluble fraction (log2)” value is -0.0414.

Turning to “HMQTPPGRYRHYKGGLYEVIATARHSETLEPMTVYRALYGEQGLWVRPAAMFAEDITLEGVRQPRFARI”, the “soluble fraction (log2)” value is -2.39.

With “HMQTRIDISDAVLQWVVRKTQFAALPPKAAAHLTKWVRGEKKPTFNQLEEVSKATGIPLGYFFLQQPPHE”, the “soluble fraction (log2)” value was -2.19.

As to “HMQTTEDMEINAKVDEYLREMYLWNDEYKTLNLDHNKGYEDFFYDALGSMTTNTLDKKTYVGSDGKTYYNL”, the “soluble fraction (log2)” value is -0.205.

Take “HMQTYTYYIAKNDISIGQKITPDMLIEKQVNLGDSKDRYLSREQLETGKYIAVRQIPAGELISSASANE”: the “soluble fraction (log2)” value was found to be 0.102.

With “HMQVAPQVERLLRVMGNETLSLSDIMGRMGLSDKKNFRESYLVPALRSAVIEMTIPDKPNSSLQKYRRIHE”, the “soluble fraction (log2)” value is -0.634.

Consider “HMQVEEKNKKIELYIEGKIKELESNLMYVPNENKKKLLMAFMNRNEDIEIIKTKIDTIFNKSVAAYKENM”, for which the “soluble fraction (log2)” value is -0.302.

For “HMQVIDNHWRPSRDALDILLRDGISEHFIEDAIPEFILYWRERGTQDSNWNSRFLQHIRLQWARYTNAV”, the “soluble fraction (log2)” value was -1.67.

Regarding “HMQVPDLYRTLGVGRDATTEAIEAAYVGWQARLSAGEPISTQEWERLRYAHEVLSNPQRRSLYDSLVAET”, the “soluble fraction (log2)” value was -0.0937.

Regarding “HMQVPVNVSMEILDWVIAHIKIDALPNQIREYLNLWVNGEKEPTFNQVEKVSKATGIPLGYFFLQTPPIED”, the “soluble fraction (log2)” value was -1.79.

For “HMQVQHVWNRLKRPNGDVLYEINRDHPLVSASLDAAADRGAIETLLRQIEQSLPVNQLYVDMNADEHFE”, the “soluble fraction (log2)” value was -0.602.

In the case of “HMQVSDAAQLAEVVKTVLAENPAAVGDYRKGKKAAIGFLLGQVMRHMRGTANPAVARQLLEQALEDE”, the “soluble fraction (log2)” value is -0.076.

Turning to “HMQVSDLSAIDSLIDKVLSEQQAAVQDFRSGQGKAMGFLIGKVMQASDGKANPKVIRELMGKKLA”, the “soluble fraction (log2)” value stood at 0.0534.

Consider “HMQVSIGERVKLARMSAGLNQRQLGKEMGMSAMAISKYETGEVVPNSRVLIQLSQTLHVPLDFFFRS”, for which the “soluble fraction (log2)” value was -3.04.

Consider “HMQVTDADFDQIRLAVLSQLKQNSLTVAELLKIIPFKEQKVMPVIRFLIDNRVLEHGTDMKLTVGNSVK”, for which the “soluble fraction (log2)” value was -0.223.

As for “HMQVTIGADLAEHAARLDVQISDVVKLIKSGVSEGEIKVGLTKLETRLAHPELALVENKLAYLKALIAES”, the “soluble fraction (log2)” value is -2.27.

For “HMQYALEDDLDSAIKLLTGKGLSGTVAWGWSDTYINVGKKSYSMEFIAKMLLRLGEGSRVTIQVDPA”, the “soluble fraction (log2)” value was -4.62.

Regarding “HMQYIINFEYSGMLLREYLRGVLGLSHGTLTALKKDPLGILLNGEHATVRAVLHAGDRLTLALE”, the “soluble fraction (log2)” value is -3.51.

With “HMQYKVMDVTVDGNPVIEFQNLNSKIKWIENNPDAIIQNIKTSSFEADQKRIVGTSRGPFWIVIKPDF”, the “soluble fraction (log2)” value was -0.424.

Regarding “HMQYRQRRGLERMELILDAATRVVAEVGYERTTTNAIATRAGISPGSLYQYFSSKEDIASALWERYAE”, the “soluble fraction (log2)” value is -0.0812.

In the case of “HMRAGEAVTGQVIGVKEDEIILSIAGSKSEGIITRSEFTNEPNVDLTTKVSVGDELEVKVLKVNDGEGMAS”, the “soluble fraction (log2)” value is -0.317.

For “HMRAKPLILLDGREISAEELFSLDKNSIKSIEVLKDETALAQYGEKAKNGVVLVVTKSAAAS”, the “soluble fraction (log2)” value came to 0.00789.

Turning to “HMRALPAGQADLLKWIDGVTPRSVEELELLSGLEPGRLSELLMELELAGIVRAVAGDSYIKISKS”, the “soluble fraction (log2)” value was -0.649.

On to “HMRAPETEITYTEFKTALRAGQIETATVGIEQISGKLTDGDLYRTVRVDDPDLLKDLEANHVNAAGRV”, for which the “soluble fraction (log2)” value was found to be 0.0537.

“HMRASQGRNELILSLLRGHELSILELLEGLEKQGVRVARPTLTKDLNELVSRGSVEATAPPRSKNRTYRIP”: the “soluble fraction (log2)” value is -0.986.

Regarding “HMRDFLMDSTKNKLSKDQVQLSRIFLWFGNDFGSKAERLEFISRYSGMDFNQPKIDYLTYDWSLNQ”, the “soluble fraction (log2)” value worked out at 0.286.

For the sequence “HMRDLITYVVQINGKLRGKLEVAPDTDPEELKALALEVENVKRSLEGWVVKKVIVVPGKMVSIAAG”, the “soluble fraction (log2)” value was -1.77.

Consider “HMRDLLPHFQRELQFLQTHRNEFAAAYPELGGRLATASDLLDDPHVERMVQSFALLAARVHKRLDDDF”, for which the “soluble fraction (log2)” value turned out to be 0.121.

In the case of “HMRDLTARQQQILALIRQHIADTGFPPTRAEIAAQLGFRSPNAAEEHLKALARKGVIELASGASRGIRLK”, the “soluble fraction (log2)” value was -0.86.

In the case of “HMRDPFDALSARERAVASLVQRGLRNKEVASELGLTEGTVKVHLHKVFDKLGIRGRTELILLAQER”, the “soluble fraction (log2)” value is -1.35.

As for “HMRDQAIDIYKTVHSVAEPYKEVFLLRVLGELSFKEISHIFGKSESWAKVTFFRAKIKVVEKREES”, the “soluble fraction (log2)” value is -3.97.

On to “HMRDQQHNIYLLEKAKRLYEEFLGDNRHIIAAEMARFEAVLETQDAIIIQRAQQQFSEFLNRFDG”, for which the “soluble fraction (log2)” value is -2.12.

In the case of “HMRDRYEYLKELRLYLSPLGRTEEDRVIEYYAELIGDKIESGIPENGVLSQLGTPRELADKILAETQEY”, the “soluble fraction (log2)” value is -0.377.

Consider “HMRDSLVGLEGVVVREVDDETLAGKVQIGSMEWSARSESGRIPAGRRVVVLRAEGVHIVVKEV”, for which the “soluble fraction (log2)” value was -0.407.

For “HMRDSWNEATKEKRYTEAYDALNSALKKTPATPHALSDALWIARELGRTNEEVQRLEWRLYALLTWIS”, the “soluble fraction (log2)” value stood at 0.241.

Regarding “HMRDTDAEVTYKLNEPFKTMGSVSVEGKVLEFAGSKWFARAAEFASNTEVYPLAKNRVRLTFTFHGLTAP”, the “soluble fraction (log2)” value is 0.146.
